Data on 37 variants can be found in the Human Domainome abundance scans (Beltran et al. 2025).

First the molecules themselves.
B1: Peroxisome proliferator-activated receptor delta, residues 71 to 145; numbered along this chain, Q03181 (parent)
chain: NMECRVCGDKASGFHYGVHACEGCKGFFRRTIRMKLEYEKCERSCKIQKKNRNKCQYCRFQKCLALGMSHNAIRF

± gives the uncertainty stated by the source.

This data set covers variants of B1. Briefly: abundance fitness (aPCA) (normalised: wild type 0, dead -1); higher = more abundant; growth selection in yeast, the domain comes from the species named. The following applies: Homo sapiens.
As to NMECRVCGDKASGFHYGVHACEGCKGFFRRTIRMKLEYEKCNRSCKIQKKNRNKCQYCRFQKCLALGMSHNAIRF [E42N], the abundance fitness was -0.335 ± 0.1.

Take NMECRVCGDKASGFHYGVHACEGCKGFFRRTIRMKLEYEKCRRSCKIQKKNRNKCQYCRFQKCLALGMSHNAIRF [E42R]: the abundance fitness is -0.367 ± 0.038.

In the case of NMECRVCGDKASGFHYGVHACEGCKGFFRPTIRMKLEYEKCERSCKIQKKNRNKCQYCRFQKCLALGMSHNAIRF [R30P], the abundance fitness is -1.05 ± 0.17.

In the case of NMECRVCGDKASGFHYGVHACEGCKGFFRRTIRMKLEYEKCERSHKIQKKNRNKCQYCRFQKCLALGMSHNAIRF [C45H], the abundance fitness is -0.218 ± 0.17.

As to NMECRVPGDKASGFHYGVHACEGCKGFFRRTIRMKLEYEKCERSCKIQKKNRNKCQYCRFQKCLALGMSHNAIRF [C7P], the abundance fitness was -0.759 ± 0.14.

Turning to NMECRVCGDKASGFHYGVHACEGCKGFFRRTIRMKLEYEKCERSCKIQKKNRNKCQYCRFQKCLALGMSRNAIRF [H70R], the abundance fitness came out at 0.063 ± 0.052.

On to NHECRVCGDKASGFHYGVHACEGCKGFFRRTIRMKLEYEKCERSCKIQKKNRNKCQYCRFQKCLALGMSHNAIRF [M2H], for which the abundance fitness is -0.276 ± 0.12.

For NMECRVCGDKASGFHYGVHACEGCKGFFRRTIRMKLEYEKCERSCKIQKKARNKCQYCRFQKCLALGMSHNAIRF [N51A], the abundance fitness was -0.154 ± 0.043.

Turning to NMECRVCGDKASGFHYGVHACEGCKGFFRRTIRMKLEYEKCERSCKIQKKNRNKCQYCSFQKCLALGMSHNAIRF [R59S], the abundance fitness is -0.928 ± 0.13.

As to NMECCVCGDKASGFHYGVHACEGCKGFFRRTIRMKLEYEKCERSCKIQKKNRNKCQYCRFQKCLALGMSHNAIRF [R5C], the abundance fitness is -0.13 ± 0.063.

With NMECRVCGDKASGFHYGVHACEGCKGFFRRTIRMKLEYEKCERSCKIQKKNRNSCQYCRFQKCLALGMSHNAIRF [K54S], the abundance fitness was -0.079 ± 0.043.

For NMECRVCGDKASGFHYGVHCCEGCKGFFRRTIRMKLEYEKCERSCKIQKKNRNKCQYCRFQKCLALGMSHNAIRF [A20C], the abundance fitness is 0.139 ± 0.06.

With NMECRVCADKASGFHYGVHACEGCKGFFRRTIRMKLEYEKCERSCKIQKKNRNKCQYCRFQKCLALGMSHNAIRF [G8A], the abundance fitness was -0.382 ± 0.052.

In the case of NMECRVCPDKASGFHYGVHACEGCKGFFRRTIRMKLEYEKCERSCKIQKKNRNKCQYCRFQKCLALGMSHNAIRF [G8P], the abundance fitness is -0.891 ± 0.11.

NMECRVCGDKASGFHYGVHACEGCKGFFRRTARMKLEYEKCERSCKIQKKNRNKCQYCRFQKCLALGMSHNAIRF [I32A]: the abundance fitness was -0.221 ± 0.054.

On to NMECRVCGDKASGFHYGVHACEGCKGFFRRTIRMKLEYEKCERSCKIQKKNRNKCQYCRFQKCLALCMSHNAIRF [G67C], for which the abundance fitness is -0.469 ± 0.11.

As for NMECRVCGDKASGFHYGVHACEGCKGFFRRTIRMKLEYEKCERSCKIQKKNRNKCQYCRFQKCLALSMSHNAIRF [G67S], the abundance fitness is -0.694 ± 0.077.

NMECRVCGDKASGFHYGVVACEGCKGFFRRTIRMKLEYEKCERSCKIQKKNRNKCQYCRFQKCLALGMSHNAIRF [H19V]: the abundance fitness was -0.083 ± 0.046.

NMECRVCGDKASGFHYGVHACEGCKGFWRRTIRMKLEYEKCERSCKIQKKNRNKCQYCRFQKCLALGMSHNAIRF [F28W]: the abundance fitness is -0.203 ± 0.054.

In the case of NMECRVCGDKASGFYYGVHACEGCKGFFRRTIRMKLEYEKCERSCKIQKKNRNKCQYCRFQKCLALGMSHNAIRF [H15Y], the abundance fitness was -0.088 ± 0.061.

As to NMECRVCGDKASGFHYGVHAWEGCKGFFRRTIRMKLEYEKCERSCKIQKKNRNKCQYCRFQKCLALGMSHNAIRF [C21W], the abundance fitness is -0.881 ± 0.14.

Take NMECRVCGDKASGFHYGVHACEGCKGFFRRTIRMKLEYEKCERSCKIQKKNRNKCQYCRFQKCLALGMSHNAISF [R74S]: the abundance fitness came out at 0.093 ± 0.046.

Regarding NMECRVCGDKASGFHYGVHACEGCKGFFRRTIRMKLEYEKCERSCKIQKKNRNKCQYCRFQKCLALGMSHNAIGF [R74G], the abundance fitness stood at 0.224 ± 0.038.

For the variant NMECRVCGDKASGFHYGVHACEGCKGFFRRTIRMKLEYEKCERSCKIQKKNRNKCTYCRFQKCLALGMSHNAIRF [Q56T], the abundance fitness is -0.321 ± 0.056.

For NMECRVCGDKMSGFHYGVHACEGCKGFFRRTIRMKLEYEKCERSCKIQKKNRNKCQYCRFQKCLALGMSHNAIRF [A11M], the abundance fitness was -0.337 ± 0.069.

Take NMECRVCGDKASGFHYGVHACEGCMGFFRRTIRMKLEYEKCERSCKIQKKNRNKCQYCRFQKCLALGMSHNAIRF [K25M]: the abundance fitness was 0.188 ± 0.042.

As to NMICRVCGDKASGFHYGVHACEGCKGFFRRTIRMKLEYEKCERSCKIQKKNRNKCQYCRFQKCLALGMSHNAIRF [E3I], the abundance fitness is -0.044 ± 0.081.

In the case of NMECRVCGDKASGFHYGVHACEGCKGFFRRTIRMKLEYEKCERSCNIQKKNRNKCQYCRFQKCLALGMSHNAIRF [K46N], the abundance fitness was 0.029 ± 0.067.

Consider NMECRVCGDKASGFHYGVHACESCKGFFRRTIRMKLEYEKCERSCKIQKKNRNKCQYCRFQKCLALGMSHNAIRF [G23S], for which the abundance fitness was 0.146 ± 0.034.

As for NMECRVCGDKASGFHYGVHACEGCKGFFRRTIRHKLEYEKCERSCKIQKKNRNKCQYCRFQKCLALGMSHNAIRF [M34H], the abundance fitness is 0.047 ± 0.075.

On to NMECRVCGDKASGFHYGVHACEGCKGFFRRTIREKLEYEKCERSCKIQKKNRNKCQYCRFQKCLALGMSHNAIRF [M34E], for which the abundance fitness was 0.118 ± 0.051.

In the case of NMECRVCGDKASGFHVGVHACEGCKGFFRRTIRMKLEYEKCERSCKIQKKNRNKCQYCRFQKCLALGMSHNAIRF [Y16V], the abundance fitness was -0.281 ± 0.049.

For the variant NMECRVCGDKASGFHYGVHACEGCKGFFRRTITMKLEYEKCERSCKIQKKNRNKCQYCRFQKCLALGMSHNAIRF [R33T], the abundance fitness came to 0.129 ± 0.055.

Regarding NMECRDCGDKASGFHYGVHACEGCKGFFRRTIRMKLEYEKCERSCKIQKKNRNKCQYCRFQKCLALGMSHNAIRF [V6D], the abundance fitness was -0.823 ± 0.19.

For the variant NMECRVCGDKASGFHYGVHACEGCKGFFRRTIRMKLEYEKCERSCKIQKKNRNKCQYCRFQKCLGLGMSHNAIRF [A65G], the abundance fitness was -0.185 ± 0.035.

As to NMECRVCGDKASGFHYGVHACEGCKGFFRRTIRMKLEYEKCERSCKIQKKNRNKCQMCRFQKCLALGMSHNAIRF [Y57M], the abundance fitness was -0.867 ± 0.22.

On to NMECRVCGDKASGFHYGVHACNGCKGFFRRTIRMKLEYEKCERSCKIQKKNRNKCQYCRFQKCLALGMSHNAIRF [E22N], for which the abundance fitness was -0.207 ± 0.09.
